Results published in the RNAGym collection of RNA variant scans (doi:10.1073/pnas.2313332121).

B1: TPR t1 (parent)
chain: GACCAAUCUGCCCUCAGAGCUCGAGAACAUCUUCGGAUGCAGAGGAGGCAGGCUUCGGUGGCGCGAUAGCGCCAACGUCCUCAACCUCCAAUGCAUCCCACCACAUGAUGAUGCCUGAAGAGCCUUGGUUUUUUG

Variants of: B1
Assay: polymerase ribozyme fitness, log enrichment relative to wild type (log ratio); higher = more active; in vitro selection for triplet polymerase activity
Method in brief: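 The heterodimeric triplet polymerase ribozyme's subunits were each mutagenized into PCR-built libraries and transcribed. Every library was selected once, in triplicate, by annealing with a biotinylated primer, the partner subunit and triplets, incubating frozen at −7 °C, gel-excising extended constructs, capturing on streptavidin beads and running RT-PCR. Input and output libraries were Illumina-sequenced, with genotypes kept only at ≥10 input reads and ≥1 read per output. Fitness, from inverse-variance-weighted replicate averages, is the base-2 logarithm of genotype enrichment over wild-type enrichment.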

| Variant | polymerase ribozyme fitness (log ratio) |
| --- | --- |
| G60U A111G | 0.488 |
| G60U A111U | -2.87 |
| G60A C82A G113A | -0.999 |
| G60A C88G G120C | -0.823 |
| G60C G117U | -3.4 |
| G60C G117C | -4.28 |
| G60A G69U A121C G122U | -0.0689 |
| G60C C94G U96A A103C | -6.59 |
| G60C A121U | 1.85 |
| G60A C114G U132G | -4.75 |
| G60A C89U A95U | -1.24 |
| G60A C72G U92C G93A | -4.92 |
| G60C A95G G120A U130C | 0.59 |
| G60A U125G | -0.67 |
| G60C A84C C86U | -1.01 |
| G60U A90C | -1.12 |
| G60A U87G C101U | 0.254 |
| G60A C73G A108U | -5.92 |
| G60C U78A G110A A111U C124A U133A | -2.76 |
| G60C C94G U116C C123U | -3.28 |
| G60A A95G C104A U132C | -2.06 |

| Variant | polymerase ribozyme fitness (log ratio) |
| --- | --- |
| G60A C82A U129G | -1.13 |
| G60C G127U | -0.837 |
| G60C C94U C124U | 1.26 |
| G60A C104A | -1.89 |
| G60A U81G A91G U116C | -7.03 |
| G60C C94U | -0.143 |
| G60C C94G | -1.12 |
| G60A C73A A91C G113U | -3.43 |
| G60A U112A G113C | -1.56 |
| G60A G61C G110C | -5.74 |
| G60A C72G C101U | -1.15 |
| G60U A121C | 1.48 |
| G60A U131A | 0.546 |
| G60U A75U G117C | -3.72 |
| G60A C101A | -1.57 |
| G60A C124A | 1.81 |
| G60A C124U | 1.27 |
| G60C C86A C97G U116C | -4.3 |
| G60A U78A C123U | 0.832 |
| G60A C85U | -0.816 |
| G60A C80U C89U U129G | -3.44 |

| Variant | polymerase ribozyme fitness (log ratio) |
| --- | --- |
| G60C G69U C80U | -5.8 |
| G60C C98U | -0.75 |
| G60U C62U U78G C80A U112C | -1.42 |
| G60C A66U G113A U126C | -4.03 |
| G60A A118C | -3.63 |
| G60A C70A | -3.02 |
| G60A C70U | -1.22 |
| G60A G93A U131A | -0.952 |
| G60A C80A G113C | -6.39 |
| G60C A68G | -4.8 |
| G60A U130C | -0.0253 |
| G60A A105C C115U | -5.65 |
| G60A C114G | -2.53 |
| G60C G61C U81G C115U | -5.37 |
| G60A C115A G120U | -0.811 |
| G60U A103U | -4.99 |
| G60A G69C C80G G110U G120C | -6.82 |
| G60A G107U | -4.12 |
| G60A G107A | -2.9 |
| G60A C72G | -1.01 |
| G60A C86A | -0.942 |

| Variant | polymerase ribozyme fitness (log ratio) |
| --- | --- |
| G60C U112A | 0.838 |
| G60C U112G | -0.433 |
| G60A C98U | -0.842 |
| G60A C80G | -4.53 |
| G60A C80A | -3.69 |
| G60C C115A | 0.199 |
| G60U A108C C124A | -5.47 |
| G60C C64G A90G A105C G117C G128A U133C U134G | -4.98 |
| G60C | -0.366 |
| G60U | 0.0514 |
| G60A G93A G120A | -0.129 |
| G60A U109A | -5.33 |
| G60A C123U | 1.14 |
| G60U A84G C86U G135C | -0.459 |
| G60U A95G C115G | -2.25 |
| G60C U112G C124A | -0.118 |
| G60A A84U C115A U131G | -0.704 |
| G60C G128A | -2.48 |
| G60A G127A | -0.964 |
| G60A C76G | -2.57 |
